Source: paper PMC3728621, “Structural analysis of autoinhibition in the Ras-specific exchange factor RasGRP1” (eLife, 2013)

Assays:
[1] = target: the molecule itself; experiment: crystal structure; RasGRP1^CEC at 3.0 Å; hanging drop, 0.15 M sodium citrate tribasic, 22% PEG 3350, 1 mM MnCl2, 20°C; dimer generated by a crystallographic twofold axis
[2] = target: the molecule itself; experiment: multiangle light scattering; RasGRP1^CC in solution, 30 μM to 1.5 mM monomer; data not shown

B1: RasGRP1^CEC (human Ras guanine nucleotide releasing protein 1, residues 50-607: REM, Cdc25, EF and C1 domains) (domain or fragment, UniProt O95267 50-607, looked up)
chain: MVSLGHLAKGASLDDLIDSCIQSFDADGNLCRSNQLLQVMLTMHRIVISSAELLQKVITLYKDALAKNSPGLCLKICYFVRYWITEFWVMFKMDASLTDTMEEFQELVKAKGEELHCRLIDTTQINARDWSRKLTQRIKSNTSKKRKVSLLFDHLEPEELSEHLTYLEFKSFRRISFSDYQNYLVNSCVKENPTMERSIALCNGISQWVQLMVLSRPTPQLRAEVFIKFIQVAQKLHQLQNFNTLMAVIGGLCHSSISRLKETSSHVPHEINKVLGEMTELLSSSRNYDNYRRAYGECTDFKIPILGVHLKDLISLYEAMPDYLEDGKVNVHKLLALYNHISELVQLQEVAPPLEANKDLVHLLTLSLDLYYTEDEIYELSYAREPRNHRAPPLTPSKPPVVVDWASGVSPKPDPKTISKHVQRMVDSVFKNYDHDQDGYISQEEFEKIAASFPFSFCVMDKDREGLISRDEITAYFMRASSIYSKLGLGFPHNFQETTYLKPTFCDNCAGFLWGVIKQGYRCKDCGMNCHKQCKDLVVFECKKRAKNPVAPTENNTS
notes: human RasGRP1 (full length 797 residues), residues 50-607, spanning the REM, Cdc25, EF and C1 domains; Crystallographic dimer; In gel filtration it forms dimers and higher order oligomers, depending on concentration; The structural model spans residues 53-593; 186-192 and 437-448 are not modelled; source: E. coli BL21(DE3), purified (HisTrap, tag removal with ULP1, second HisTrap, Superdex gel …)
- binding result [1]: binds

B2: RasGRP1^CC (human RasGRP1 C-terminal coiled coil, residues 739-793) (domain or fragment, UniProt O95267 739-793, looked up)
chain: ELRHLRLPTYQELEQEINTLKADNDALKIQLKYAQKKIESLQLEKSNHVLAQMEQ
notes: human RasGRP1 (full length 797 residues), residues 739-793, containing the predicted coiled coil (747-789); Parallel dimeric coiled coil; The model holds residues 745-793 (molecule A) and 745-786 (molecule B); also called C-terminal oligomerization domain; source: E. coli BL21(DE3), purified (HisTrap, tag removal with ULP1, second HisTrap, Superdex gel filtration); not shown: His6, N-terminal, …
- stoichiometry N [2]: 2
